# The supplement of paper PMC5998384
# What was measured:
# HeLa Kyoto [1] = test: solubility change mitosis vs G1/S (difference of NP-40 vs SDS log2 ratios) (log2 ratio difference); higher = more soluble in mitosis
# HeLa Kyoto [2] = test: melting temperature (median over replicates), in situ; higher = more thermally stable
# HeLa Kyoto [3] = test: thermal stability score vs G1/S (z-score of summed log2 fold changes over temperatures); higher = more thermally stable than in G1/S
# HeLa Kyoto [4] = test: solubility in G1/S (NP-40 vs SDS abundance) (log2 ratio); higher = more soluble; conditions: cell cycle stage: G1/S
# [5] = cell cycle stage: early G1 (4.5 h after nocodazole release)
# 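For melting temperature (median over replicates), in situ in this document: HeLa Kyoto cells synchronized by double thymidine or nocodazole block, proteins quantified by TMT10plex mass spectrometry, three independent biological replicates.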
# 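For solubility change mitosis vs G1/S (difference of NP-40 vs SDS log2 ratios) in this document: synchronized HeLa Kyoto cells (double thymidine block for G1/S, nocodazole release for mitosis), protein amounts in NP-40 versus SDS lysates quantified by mass spectrometry, three biological replicates.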
# 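For solubility in G1/S (NP-40 vs SDS abundance) in this document: HeLa Kyoto cells arrested at G1/S by double thymidine block, proteins quantified by TMT10plex mass spectrometry in mild NP-40 versus SDS extracts, three biological replicates.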
# 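For thermal stability score vs G1/S (z-score of summed log2 fold changes over temperatures) in this document: synchronized HeLa Kyoto cells, proteins quantified by TMT10plex mass spectrometry, three biological replicates, mitosis taken 0.5 h after nocodazole release, G1/S directly after double thymidine block.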
Sequence,solubility change mitosis (log2) (HeLa Kyoto [1]),melting temperature (HeLa Kyoto [2]; cell cycle stage: mitosis) [°C],thermal stability score (HeLa Kyoto [3]; [5]),thermal stability score (HeLa Kyoto [3]; cell cycle stage: mitosis),solubility in G1/S (log2) (HeLa Kyoto [4]),melting temperature (HeLa Kyoto [2]; cell cycle stage: G1/S) [°C]
MGNCCWTQCFGLLRKEAGRLQRVGGGGGSKYFRTCSRGEHLTIEFENLVESDEGESPGSSHRPLTEEEIVDLRERHYDSIAEKQKDLDKKIQKELALQEEKLRLEEEALYAAQREAARAAKQRKLLEQERQRIVQQYHPSNNGEYQSSGPEDDFESCLRNMKSQYEVFRSSRLSSDATVLTPNTESSCDLMTKTKSTSGNDDSTSLDLEWEDEEGMNRMLPMRERSKTEEDILRAALKYSNKKTGSNPTSASDDSNGLEWENDFVSAEMDDNGNSEYSGFVNPVLELSDSGIRHSDTDQQTR [AP1AR],-0.24,59.6,-0.31,-1.09,0.104,
MGNGGRSGLQQGKGNVDGVAATPTAASASCQYRCIECNQEAKELYRDYNHGVLKITICKSCQKPVDKYIEYDPVIILINAILCKAQAYRHILFNTQINIHGKLCIFCLLCEAYLRWWQLQDSNQNTAPDDLIRYAKEWDFYRMFAIAALEQTAYFIGIFTFLWVERPMTAKKKPNFILLLKALLLSSYGKLLLIPAVIWEHDYTSVCLKLIKVFVLTSNFQAIRVTLNINRKLSFLAVLSGLLLESIMVYFFQSMEWDVGSDYAIFKSQDF [ARV1],-0.0477,49.2,-0.687,-0.97,-0.481,
MGNLLKVLTCTDLEQGPNFFLDFENAQPTESEKEIYNQVNVVLKDAEGILEDLQSYRGAGHEIREAIQHPADEKLQEKAWGAVVPLVGKLKKFYEFSQRLEAALRGLLGALTSTPYSPTQHLEREQALAKQFAEILHFTLRFDELKMTNPAIQNDFSYYRRTLSRMRINNVPAEGENEVNNELANRMSLFYAEATPMLKTLSDATTKFVSENKNLPIENTTDCLSTMASVCRVMLETPEYRSRFTNEETVSFCLRVMVGVIILYDHVHPVGAFAKTSKIDMKGCIKVLKDQPPNSVEGLLNALRYTTKHLNDETTSKQIKSMLQ [FAM49B],0.0154,54.2,1.27,0.808,0.31,54.2
MGPGPSRAPRAPRLMLCALALMVAAGGCVVSAFNLDTRFLVVKEAGNPGSLFGYSVALHRQTERQQRYLLLAGAPRELAVPDGYTNRTGAVYLCPLTAHKDDCERMNITVKNDPGHHIIEDMWLGVTVASQGPAGRVLVCAHRYTQVLWSGSEDQRRMVGKCYVRGNDLELDSSDDWQTYHNEMCNSNTDYLETGMCQLGTSGGFTQNTVYFGAPGAYNWKGNSYMIQRKEWDLSEYSYKDPEDQGNLYIGYTMQVGSFILHPKNITIVTGAPRHRHMGAVFLLSQEAGGDLRRRQVLEGSQVGAYFGSAIALADLNNDGWQDLLVGAPYYFERKEEVGGAIYVFMNQAGTSFPAHPSLLLHGPSGSAFGLSVASIGDINQDGFQDIAVGAPFEGLGKVYIYHSSSKGLLRQPQQVIHGEKLGLPGLATFGYSLSGQMDVDENFYPDLLVGSLSDHIVLLRARPVINIVHKTLVPRPAVLDPALCTATSCVQVELCFAYNQSAGNPNYRRNITLAYTLEADRDRRPPRLRFAGSESAVFHGFFSMPEMRCQKLELLLMDNLRDKLRPIIISMNYSLPLRMPDRPRLGLRSLDAYPILNQAQALENHTEVQFQKECGPDNKCESNLQMRAAFVSEQQQKLSRLQYSRDVRKLLLSINVTNTRTSERSGEDAHEALLTLVVPPALLLSSVRPPGACQANETIFCELGNPFKRNQRMELLIAFEVIGVTLHTRDLQVQLQLSTSSHQDNLWPMILTLLVDYTLQTSLSMVNHRLQSFFGGTVMGESGMKTVEDVGSPLKYEFQVGPMGEGLVGLGTLVLGLEWPYEVSNGKWLLYPTEITVHGNGSWPCRPPGDLINPLNLTLSDPGDRPSSPQRRRRQLDPGGGQGPPPVTLAAAKKAKSETVLTCATGRAHCVWLECPIPDAPVVTNVTVKARVWNSTFIEDYRDFDRVRVNGWATLFLRTSIPTINMENKTTWFSVDIDSELVEELPAEIELWLVLVAVGAGLLLLGLIILLLWKCGFFKRARTRALYEAKRQKAEMKSQPSETERLTDDY [ITGA3],0.0722,59.2,-0.693,-1.42,0.0349,56.8
MGRDTRSRSRSAGRRGRRRQSQSGSRSRSRSHGRRNRRRREDEGRRRRRRRSRERRSDSEEERWQRSGMRSRSPPRPKWHSRDGSSQSDSGEEQSRGQWARRRRRARSWSPSSSASSSASPGRSQSPRAAAAALSQQQSLQERLRLREERKQQEELMKAFETPEEKRARRLAKKEAKERKKREKMGWGEEYMGYTNTDNPFGDNNLLGTFIWNKALEKKGISHLEEKELKERNKRIQEDNRLELQKVKQLRLEREREKAMREQELEMLQREKEAEHFKTWEEQEDNFHLQQAKLRSKIRIRDGRAKPIDLLAKYISAEDDDLAVEMHEPYTFLNGLTVADMEDLLEDIQVYMELEQGKNADFWRDMTTITEDEISKLRKLEASGKGPGERREGVNASVSSDVQSVFKGKTYNQLQVIFQGIEGKIRAGGPNLDMGYWESLLQQLRAHMARARLRERHQDVLRQKLYKLKQEQGVESEPLFPILKQEPQSPSRSLEPEDAAPTPPGPSSEGGPAEAEVDGATPTEGDGDGDGEGEGEGEAVLMEEDLIQQSLDDYDAGRYSPRLLTAHELPLDAHVLEPDEDLQRLQLSRQQLQVTGDASESAEDIFFRRAKEGMGQDEAQFSVEMPLTGKAYLWADKYRPRKPRFFNRVHTGFEWNKYNQTHYDFDNPPPKIVQGYKFNIFYPDLIDKRSTPEYFLEACADNKDFAILRFHAGPPYEDIAFKIVNREWEYSHRHGFRCQFANGIFQLWFHFKRYRYRR [CACTIN],0.985,50.4,0.527,0.928,-0.924,47.9
MGRGWGFLFGLLGAVWLLSSGHGEEQPPETAAQRCFCQVSGYLDDCTCDVETIDRFNNYRLFPRLQKLLESDYFRYYKVNLKRPCPFWNDISQCGRRDCAVKPCQSDEVPDGIKSASYKYSEEANNLIEECEQAERLGAVDESLSEETQKAVLQWTKHDDSSDNFCEADDIQSPEAEYVDLLLNPERYTGYKGPDAWKIWNVIYEENCFKPQTIKRPLNPLASGQGTSEENTFYSWLEGLCVEKRAFYRLISGLHASINVHLSARYLLQETWLEKKWGHNITEFQQRFDGILTEGEGPRRLKNLYFLYLIELRALSKVLPFFERPDFQLFTGNKIQDEENKMLLLEILHEIKSFPLHFDENSFFAGDKKEAHKLKEDFRLHFRNISRIMDCVGCFKCRLWGKLQTQGLGTALKILFSEKLIANMPESGPSYEFHLTRQEIVSLFNAFGRISTSVKELENFRNLLQNIH [ERO1A],-0.161,54.6,5.02,7.63,0.338,54.2
MGRKLDPTKEKRGPGRKARKQKGAETELVRFLPAVSDENSKRLSSRARKRAAKRRLGSVEAPKTNKSPEAKPLPGKLPKGISAGAVQTAGKKGPQSLFNAPRGKKRPAPGSDEEEEEEDSEEDGMVNHGDLWGSEDDADTVDDYGADSNSEDEEEGEALLPIERAARKQKAREAAAGIQWSEEETEDEEEEKEVTPESGPPKVEEADGGLQINVDEEPFVLPPAGEMEQDAQAPDLQRVHKRIQDIVGILRDFGAQREEGRSRSEYLNRLKKDLAIYYSYGDFLLGKLMDLFPLSELVEFLEANEVPRPVTLRTNTLKTRRRDLAQALINRGVNLDPLGKWSKTGLVVYDSSVPIGATPEYLAGHYMLQGASSMLPVMALAPQEHERILDMCCAPGGKTSYMAQLMKNTGVILANDANAERLKSVVGNLHRLGVTNTIISHYDGRQFPKVVGGFDRVLLDAPCSGTGVISKDPAVKTNKDEKDILRCAHLQKELLLSAIDSVNATSKTGGYLVYCTCSITVEENEWVVDYALKKRNVRLVPTGLDFGQEGFTRFRERRFHPSLRSTRRFYPHTHNMDGFFIAKFKKFSNSIPQSQTGNSETATPTNVDLPQVIPKSENSSQPAKKAKGAAKTKQQLQKQQHPKKASFQKLNGISKGADSELSTVPSVTKTQASSSFQDSSQPAGKAEGIREPKVTGKLKQRSPKLQSSKKVAFLRQNAPPKGTDTQTPAVLSPSKTQATLKPKDHHQPLGRAKGVEKQQLPEQPFEKAAFQKQNDTPKGPQPPTVSPIRSSRPPPAKRKKSQSRGNSQLLLS [NOP2],0.976,53.9,-0.377,-6.17,-2.12,55.4
MGRRRAPAGGSLGRALMRHQTQRSRSHRHTDSWLHTSELNDGYDWGRLNLQSVTEQSSLDDFLATAELAGTEFVAEKLNIKFVPAEARTGLLSFEESQRIKKLHEENKQFLCIPRRPNWNQNTTPEELKQAEKDNFLEWRRQLVRLEEEQKLILTPFERNLDFWRQLWRVIERSDIVVQIVDARNPLLFRCEDLECYVKEMDANKENVILINKADLLTAEQRSAWAMYFEKEDVKVIFWSALAGAIPLNGDSEEEANRDDRQSNTTKFGHSSFDQAEISHSESEHLPARDSPSLSENPTTDEDDSEYEDCPEEEEDDWQTCSEEDGPKEEDCSQDWKESSTADSEARSRKTPQKRQIHNFSHLVSKQELLELFKELHTGRKVKDGQLTVGLVGYPNVGKSSTINTIMGNKKVSVSATPGHTKHFQTLYVEPGLCLCDCPGLVMPSFVSTKAEMTCSGILPIDQMRDHVPPVSLVCQNIPRHVLEATYGINIITPREDEDPHRPPTSEELLTAYGYMRGFMTAHGQPDQPRSARYILKDYVSGKLLYCHPPPGRDPVTFQHQHQRLLENKMNSDEIKMQLGRNKKAKQIENIVDKTFFHQENVRALTKGVQAVMGYKPGSGVVTASTASSENGAGKPWKKHGNRNKKEKSRRLYKHLDM [LSG1],0.0936,49,0.926,1.89,-0.366,49
MGRTSKDKRDVYYRLAKENGWRARSAFKLLQLDKEFQLFQGVTRAVDLCAAPGSWSQVLSQKIGGQGSGHVVAVDLQAMAPLPGVVQIQGDITQLSTAKEIIQHFKGCPADLVVCDGAPDVTGLHDVDEYMQAQLLLAALNIATHVLKPGGCFVAKIFRGRDVTLLYSQLQVFFSSVLCAKPRSSRNSSIEAFAVCQGYDPPEGFIPDLSKPLLDHSYDPDFNQLDGPTRIIVPFVTCGDLSSYDSDRSYPLDLEGGSEYKYTPPTQPPISPPYQEACTLKRKGQLAKEIRPQDCPISRVDTFPQPLAAPQCHTLLAPEMEDNEMSCSP [FTSJ1],0.07,50.5,-0.919,-0.299,0.332,51.4
MGRTYIVEETVGQYLSNINLQGKAFVSGLLIGQCSSQKDYVILATRTPPKEEQSENLKHPKAKLDNLDEEWATEHACQVSRMLPGGLLVLGVFIITTLELANDFQNALRRLMFAVEKSINRKRLWNFTEEEVSERVTLHICASTKKIFCRTYDIHDPKSSARPADWKYQSGLSSSWLSLECTVHINIHIPLSATSVSYTLEKNTKNGLTRWAKEIENGVYLINGQVKDEDCDLLEGQKKSSRGNTQATSHSFDVRVLTQLLLNSDHRSTATVQICSGSVNLKGAVKCRAYIHSSKPKVKDAVQAVKRDILNTVADRCEMLFEDLLLNEIPEKKDSEKEFHVLPYRVFVPLPGSTVMLCDYKFDDESAEEIRDHFMEMLDHTIQIEDLEIAEETNTACMSSSMNSQASLDNTDDEQPKQPIKTTMLLKIQQNIGVIAAFTVAVLAAGISFHYFSD [ODR4],-0.0887,51.1,0.605,0.226,-0.0468,50.6
